Substrate in the data set: CCCCCCCCCCCC(=O)Oc1ccc([N+](=O)[O-])cc1
The experiment in a line: spectrophotometric p-nitrophenol release (A400), initial rates, Michaelis-Menten fit. It counts as biochemical, uncultured organism. As to conditions: extracellular medium of recombinant yeast, Tris/HCl pH 7.5, CaCl2, 40 °C, pNP12 0.002-2.5 mM. The text has this: spectrophotometric p-nitrophenol release (A400), initial rates, Michaelis-Menten fit on LOB4Est

This note sets out measurements from article PMC4653306, “Metagenomics of an Alkaline Hot Spring in Galicia (Spain): Microbial Diversity Analysis and Screening for Novel Lipolytic Enzymes” (Frontiers in Microbiology, 2015).

B1: LOB4Est (uncultured organism) (protein)
chain: SRPRTAVHDRVLELVQQQIAAGQQLGVQVCAYQNGEKIVDIVAGVMGPDDPRPVQPDTLFNSFSTTKGVAATALHILAEQGKLEYEQPVARYWPAFAANGKERVTVAQAMSHQAGLHAMPTPSTIETLCDWEGGLNWVASGVPAWEPGTATGYHAITYAWVVGGIVYGATGRHIKDVIREEIAIPLGVADELFVGIPEGVEDRLATLAVPAPGEGMALPIPPDHDFFKAMPPSLGGHVYNDMRVRRACLPSANGHFSARALAKMYAALAGGGVVDGVRLVSPERIALMQRILTADMDRVLMLPLRKGVGFMMGGPVNGVSGVFGPRETAFGHSGAGGSTAFCDPETGLAVAVTINQMQMTLQAEGPTYAICQLIREELGCA
notes: yeast alpha-factor secretion signal fusion (removed on secretion), N-terminal FLAG-tag kept; secreted by Saccharomyces cerevisiae BJ3505 (YEpFLAG-1), assayed as unpurified extracellular medium
B1: the Km came out at 298 µM and the Vmax came out at 264 µM/min.
